Reference: the supplement of paper PMC10567573

B1: ZNF511 (parent)
chain: HLYPADFRFDKPKKSRSPASAEAP

Variants of: B1
Assay: protein stability index of a GFP-peptide fusion (GPS, HEK-293T) (PSI 1-6); higher = more stable
Settings: c terminus: a fixed tail appended
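Note: lentivirally expressed fusions sorted by FACS into six bins by GFP to DsRed ratio, PSI derived from sequencing read proportions per bin multiplied by bin number.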

Row | Variant | protein stability index
1 | S20L | 2.51
2 | S20A | 3.32
3 | S20P | 2.72
4 | S20W | 1.8
5 | S20C | 2.92
6 | S20I | 2.64
7 | S20M | 2.68
8 | S20Y | 2.61
9 | S20F | 2.22
10 | S20N | 3.36
11 | S20G | 2.85
12 | S20D | 2.97
13 | S20K | 2.71
14 | S20T | 3.07
15 | A21Q | 3.67
16 | A21E | 3.08
17 | A21F | 3.18
18 | A21N | 2.96
19 | A21Y | 2.95
20 | A21M | 3
21 | A21K | 2.81
22 | A21R | 2.84
23 | A21P | 3.11
24 | A21C | 3.1

Row | Variant | protein stability index
25 | A21S | 3.4
26 | A21W | 2.28
27 | A21T | 2.75
28 | A21V | 2.71
29 | A21G | 3
30 | K14M | 3.17
31 | K14Y | 2.62
32 | K14F | 2.26
33 | K14L | 3.24
34 | K14I | 2.67
35 | K14G | 3.22
36 | K14P | 2.63
37 | K14A | 3.3
38 | K14C | 2.77
39 | K14E | 3.23
40 | K14D | 3.29
41 | K14S | 3.08
42 | K14Q | 2.39
43 | A23V | 2.73
44 | A23N | 3.1
45 | A23P | 3.37
46 | A23Q | 3.06
47 | A23I | 2.69
48 | A23W | 2.82

Row | Variant | protein stability index
49 | A23T | 2.72
50 | A23K | 3.19
51 | A23C | 2.73
52 | A23H | 3.13
53 | A23F | 2.76
54 | A23R | 2.8
55 | A23S | 2.86
56 | A23Y | 2.63
57 | A23L | 2.88
58 | P4K | 4.5
59 | P4T | 3.77
60 | P4W | 2.33
61 | P4Q | 3.94
62 | P4V | 3.24
63 | P4G | 3.21
64 | P4Y | 2.73
65 | P4C | 3.54
66 | P4F | 2.85
67 | P4N | 3.78
68 | R16G | 3.29
69 | R16Y | 2.13
70 | R16S | 2.76
71 | R16V | 2.51
72 | R16L | 2.97

Row | Variant | protein stability index
73 | R16I | 2.6
74 | R16W | 3.05
75 | R16P | 3.2
76 | R16K | 3.36
77 | R16N | 3.17
78 | R16F | 2.73
79 | R16D | 3.18
80 | Y3H | 2.69
81 | Y3M | 4.4
82 | Y3S | 3.64
83 | Y3E | 3.71
84 | Y3V | 3.81
85 | Y3F | 3.13
86 | Y3P | 4.73
87 | Y3T | 4.65
88 | Y3K | 3.84
89 | Y3C | 3.55
90 | Y3N | 2.43
91 | Y3Q | 3.85
92 | A19F | 2.05
93 | A19H | 2.68
94 | A19D | 3.36
95 | A19R | 2.81
96 | A19E | 2.97

Row | Variant | protein stability index
97 | A19V | 2.87
98 | A19C | 2.63
99 | A19P | 3.18
100 | A19T | 3.29
101 | A19I | 2.74
102 | A19W | 2
103 | A19M | 2.7
104 | A19K | 3.54
105 | A19Q | 2.56
106 | A19S | 3.44
107 | S15I | 3.23
108 | S15Y | 2.51
109 | S15D | 3.35
110 | S15P | 3.19
111 | S15C | 2.56
112 | S15E | 3.18
113 | S15A | 3.39
114 | S15W | 1.93
115 | S15F | 3.04
116 | S15N | 2.67
117 | S15G | 2.86
118 | S15H | 2.93
119 | S15L | 2.92
120 | S15V | 2.36

Row | Variant | protein stability index
121 | S15T | 2.4
122 | S15Q | 3.19
123 | S15R | 1.78
124 | K11T | 3.02
125 | K11L | 2.72
126 | K11P | 2.87
127 | K11Q | 3.24
128 | K11M | 2.62
129 | K11A | 3.14
130 | K11E | 3.01
131 | K11R | 2.89
132 | K11W | 2.11
133 | K11S | 3.32
134 | K11F | 2.95
135 | K11C | 3.21
136 | K11V | 3.52
137 | K11I | 3.56
138 | K11Y | 2.44
139 | E22L | 2.58
140 | E22K | 2.69
141 | E22P | 2.91
142 | E22H | 2.63
143 | E22T | 2.64
144 | E22M | 2.19

Row | Variant | protein stability index
145 | E22I | 2.93
146 | E22C | 2.67
147 | E22A | 2.7
148 | E22G | 3.13
149 | E22Q | 2.61
150 | E22N | 2.9
151 | E22W | 2.44
152 | H1N | 4.2
153 | H1M | 4.09
154 | H1L | 3.94
155 | H1P | 4.58
156 | H1I | 2.85
157 | H1D | 4.13
158 | H1S | 4.48
159 | H1F | 4.32
160 | H1W | 2.69
161 | H1C | 3.59
162 | H1K | 4.05
163 | H1G | 4.7
164 | H1Y | 2.08
165 | H1A | 3.95
166 | H1E | 3.81
167 | P24S | 3.62
168 | P24G | 2.42

Row | Variant | protein stability index
169 | P24T | 2.71
170 | P24L | 2.92
171 | P24E | 2.6
172 | P24M | 2.53
173 | P24D | 3.44
174 | P24V | 2.98
175 | P24C | 2.88
176 | P24K | 2.97
177 | P24Y | 2.69
178 | P24R | 2.39
179 | P24Q | 2.6
180 | P24W | 2.14
181 | P24H | 2.87
182 | P24A | 3.32
183 | R8V | 1.6
184 | R8F | 2.37
185 | R8D | 4.13
186 | R8E | 3.93
187 | R8Q | 3.11
188 | R8T | 2.44
189 | R8Y | 2.37
190 | R8K | 3.3
191 | R8W | 1.8
192 | R8P | 4.07

Row | Variant | protein stability index
193 | R8C | 2.8
194 | R8L | 1.77
195 | R8G | 2.53
196 | R8S | 2.05
197 | R8A | 2.61
198 | A5S | 2.69
199 | A5N | 2.29
200 | A5P | 4.01
201 | A5V | 3.6
202 | A5L | 3.02
203 | A5K | 2.97
204 | A5R | 3.21
205 | A5Y | 2.79
206 | A5W | 1.63
207 | A5D | 2.32
208 | A5C | 3.06
209 | A5G | 2.62
210 | A5M | 2.48
211 | A5Q | 2.16
212 | P12K | 2.96
213 | P12R | 2.47
214 | P12S | 2.64
215 | P12C | 2.94
216 | P12M | 2.72

Row | Variant | protein stability index
217 | P12Y | 2.94
218 | P12L | 3.25
219 | P12E | 3.69
220 | P12N | 2.65
221 | P12I | 3.72
222 | P12F | 3.14
223 | P12A | 2.83
224 | P12H | 2.89
225 | P12W | 3.02
226 | D10T | 2.69
227 | D10H | 1.52
228 | D10S | 3.22
229 | D10G | 2.85
230 | D10W | 2.92
231 | D10E | 3.08
232 | D10M | 2.99
233 | D10A | 2.16
234 | D10Y | 2.87
235 | D10P | 2.54
236 | D10K | 2.8
237 | D10I | 1.87
238 | D10R | 2.71
239 | D10L | 3.01
240 | D10V | 2.62

Row | Variant | protein stability index
241 | L2A | 4.37
242 | L2E | 4.73
243 | L2Q | 3.59
244 | L2Y | 3.84
245 | L2G | 4.37
246 | L2I | 1.9
247 | L2H | 3.58
248 | L2R | 4.1
249 | L2T | 4.64
250 | L2F | 4.37
251 | L2S | 4.63
252 | L2N | 4.38
253 | L2V | 2.69
254 | F9M | 2.01
255 | F9P | 2.35
256 | F9E | 1.88
257 | F9C | 2.61
258 | F9N | 2.63
259 | F9H | 2.91
260 | F9S | 2.05
261 | F9Q | 2
262 | F9Y | 3.29
263 | F9I | 2.49
264 | F9A | 1.29

Row | Variant | protein stability index
265 | F9D | 2.1
266 | F9T | 2.85
267 | D6I | 1.47
268 | D6Q | 2.18
269 | D6N | 2.82
270 | D6E | 2.1
271 | D6H | 3
272 | D6S | 3.17
273 | D6T | 2.48
274 | D6A | 2.12
275 | D6M | 1.55
276 | D6R | 2.59
277 | D6C | 2.52
278 | F7K | 4.71
279 | F7P | 4.24
280 | F7A | 4.81
281 | F7C | 4.29
282 | F7R | 4.22
283 | F7W | 2.09
284 | F7I | 3.94
285 | F7Y | 3.29
286 | F7L | 4.49
287 | F7H | 3.98
288 | F7S | 4.25

Row | Variant | protein stability index
289 | F7M | 4.38
290 | F7G | 4.42
291 | P18W | 2.51
292 | P18M | 2.78
293 | P18A | 2.22
294 | P18H | 2.74
295 | P18N | 2.34
296 | P18S | 2.97
297 | P18V | 2.33
298 | P18E | 2.74
299 | P18C | 2.97
300 | P18G | 2.58
301 | P18Q | 2.56
302 | P18R | 2.79
303 | P18Y | 2.34
304 | P18L | 2.73
305 | P18F | 2.3
306 | P18D | 3.09
307 | K13F | 2.7
308 | K13E | 3.34
309 | K13H | 2.78
310 | K13P | 3.64
311 | K13R | 3.2
312 | K13Y | 3.56

Row | Variant | protein stability index
313 | K13W | 2.58
314 | K13V | 2.22
315 | K13G | 2.92
316 | K13C | 2.8
317 | K13I | 3
318 | K13T | 3.18
319 | K13D | 3.04
320 | S17K | 3.01
321 | S17Y | 2.29
322 | S17W | 2.27
323 | S17T | 2.97
324 | S17R | 3.29
325 | S17I | 2.03
326 | S17P | 2.83
327 | S17F | 2.7
328 | S17D | 3.28
329 | S17G | 2.63
330 | S17A | 2.61
331 | S17V | 2.28
332 | S17C | 2.9
333 | S17L | 2.9
334 | S17M | 2.77
